Data set [1] is described as follows: Dynamic viscoelasticity of peptide aqueous solution (storage modulus G′, loss modulus G″). The class given is physicochemical. To be noted: 0.5 wt %, acidic aqueous solution (pH 3.5). The source says: In addition, the term “gel” as used herein refers to a viscoelastic substance having both viscous property and elastic property. Concretely, the gel refers to a substance satisfying the formula G′>G″, in a case where the gel is subjected to dynamic viscoelasticity measurement to determine a storage elastic modulus G′ and a loss elastic modulus G″.
The dynamic viscoelasticity can be determined with a dynamic viscoelasticity measurement apparatus as described in Examples set forth below. Concretely, the dynamic viscoelasticity can be determined by placing a sample on an iron plate, compressing the sample with an iron cone, and monitoring a stress applied to a motor rotating the iron cone when the cone is rotated.
The storage elastic modulus G′ and the loss elastic modulus G″ of a 0.5% by weight peptide (Peptide Nos. 1 to 10 mentioned above)-containing aqueous solution were determined with an instrument under the trade name of AR1000 (manufactured by TA Instruments Japan). […] Next, the 0.5% by weight peptide-containing aqueous solution was compressed, and a stress applied to a motor was monitored when the iron cone was rotated, while varying the frequency of the cone within the range of 0.1 to 10 rad/sec.

Data set [2] is described as follows: Gel formation, test tube placed up-side-down. Format: physicochemical. Set-up: key to Gel Formation: Excellent: those in which the contents did not drop off were evaluated as the gel formation being “excellent”; Poor: those in which the contents dropped off were evaluated as being “poor.”. To be noted: 37° C. for 24 hours. The procedure:
Peptide Nos. 1, 2, 4, 5, 6, 10 and 11 synthesized in Production Examples 1 and 2 were dissolved in each of aqueous solutions listed in Table 11. A 1.5 mL test tube was charged with 1 mL of the resulting peptide-containing aqueous solution. Next, the test tube was allowed to stand at 37° C. for 24 hours.

“RADARADARADARADA [Peptide No. 10, reference compound]”: in data set [1], the “gel formation by dynamic viscoelasticity” value is recorded as “formed the gel in an acidic aqueous solution”. For the same sequence, the “Gel Formation” value in data set [2] (PBS pH 7.4, peptide 0.5% by weight) is given as “Poor”. Further, the “gel formation in neutral aqueous solution (summary of Table 11)” value in data set [2] (neutral aqueous solutions, 0.5% by weight) is “did not form into gel in a neutral aqueous solution”.

The values are drawn from patent US8299032B2, “Self-assembling peptide and gel produced from the same” (Menicon Co., Ltd., priority 2005, dated 2012).
